Results published in FireProtDB (doi:10.1073/pnas.88.5.1706).

Conditions: Enterobacteria phage fd; pH 7; 25 °C; GdnHCl; CD; MOPS 50 mM; NaCl 100 mM; reversible: yes; whole UniProt chain shown

B1: DNA-Binding protein G5P wild type, P69542 (protein)
chain: MIKVEIKPSQAQFTTRSGVSRQGKPYSLNEQLCYVDLGNEYPVLVKITLDEGQPAYAPGLYTVHLSSFKVGQFGSLMIDRLRLVPAK
denaturant m value: 3.6 kcal/mol/M
denaturant midpoint (higher = more stable): 2.61 M
unfolding free energy: 37.7 kJ/mol
